Values quoted from earlier work as cited in article PMC3012698, “Characterization of a Novel Interaction between Bcl-2 Members Diva and Harakiri” (PLoS ONE, 2010).

How the values were obtained:
Diva = settings: ref [21]
Text: Harakiri localizes in membranes and exerts proapoptotic activity by interacting with survival Bcl-XL and Bcl-2 [18]. Harakiri has not been characterized at the structural level except for its C-terminal sequence (∼30 amino acids), which is known from low-resolution techniques to adopt α-helical conformation in model membranes. Diva has also been found predominantly in membranes [20]–[21]. However, little functional data on Diva is available. Specifically, previous independent reports indicate that Diva can have both pro- or antiapoptotic function [20]–[21]. Diva has also been ...

[1] = ref [10]
Description: Circular dichroism (CD) experiments were performed on Harakiri's cytosolic domain to obtain information on its conformational behavior. […] Thus, the cytosolic domain of Harakiri is largely unstructured. Consequently, the NMR spectra of Hrk_ΔTM show small amide ^1H chemical shift dispersion (from ∼7.9 to 8.7 ppm) and severe signal overlap ( Fig. 6 ). These spectral features together with the absen ...

binding to Diva (co-immunoprecipitation) (Diva)	Molecule	structural state of unbound BH3-only protein [1]
bind	Bak: proapoptotic Bcl-2 member Bak (protein, UniProt Q16611 2-211, looked up) Bcl-2 homologous …: ASGQGPGPPRQECGEPALPSASEEQVAQDTEEVFRSYVFYRHQQEQEAEGVAAPADPEMVTLPLQPSSTMGQVGRQLAIIGDDINRRYDSEFQTMLQHLQPTAENAYEYFTKIATSLFESGINWGRVVALLGFGYRLALHVYQHGLTGFLGQVTRFVVDFMLHHCIARWIAQRGGWVAALNLGNGPILNVLVVLGVVLLGQFVVRRFFKS	–
–	Bad: BH3-only protein Bad (protein, UniProt Q92934 1-168, looked up) Bcl2-associated agonist of …: MFQIPEFEPSEQEDSSSAERGLGPSPAGDGPSGSGKHHRQAPGLLWDASHQQEQPTSSSHHGGAGAVEIRSRHSSYPAGTEDDEGMGEEPSPFRGRSRSAPPNLWAAQRYGRELRRMSDEFVDSFKKGLPRPKSAGTATQMRQSSSWTRVFQSWWDRNLGRGSSAPSQ	unstructured
bind	Bik: proapoptotic Bcl-2 member Bik (protein, UniProt Q13323 1-160, looked up) Bcl-2-interacting killer: MSEVRPLSRDILMETLLYEQLLEPPTMEVLGMTDSEEDLDPMEDFDSLECMEGSDALALRLACIGDEMDVSLRAPRLAQLSEVAMHSLGLAFIYDQTEDIRDVLRSFMDGFTTLKENIMRFWRSPNPGSWVSCEQVLLALLLLLALLLPLLSGGLHLLLK	–
